Reference: patent US20210040201A1 (Innovent, published 2021)
Read-outs that look alike come from different tables or passages of the source.

T1: Human TIGIT expressed on the surface of cells (human, UniProt Q495A1 22-244)
T1 sequence: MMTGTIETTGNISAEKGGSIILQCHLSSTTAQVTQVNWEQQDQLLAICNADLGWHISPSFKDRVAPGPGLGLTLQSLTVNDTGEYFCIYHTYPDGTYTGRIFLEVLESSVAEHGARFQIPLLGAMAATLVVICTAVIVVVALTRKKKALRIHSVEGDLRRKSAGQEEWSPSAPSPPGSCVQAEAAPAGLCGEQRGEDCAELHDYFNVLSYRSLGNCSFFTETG

T2: Mouse TIGIT-his (ACRO, TIT-M52E6) (mouse, UniProt P86176 26-143, limits assumed)
T2 construct: Bought protein
T2 sequence (looked up): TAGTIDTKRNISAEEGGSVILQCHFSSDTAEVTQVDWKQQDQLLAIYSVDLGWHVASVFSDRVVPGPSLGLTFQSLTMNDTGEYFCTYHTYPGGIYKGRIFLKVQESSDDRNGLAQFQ


Assays:
[1] = target: T1, Human TIGIT expressed on the surface of …; test: cell-based or functional assay
[2] = target: T1, Human TIGIT expressed on the surface of …; test: cell-based or functional assay; remark: listed apart in the source
[3] = target: T1, Human TIGIT expressed on the surface of …; test: flow cytometry on CHO cells overexpressing human TIGIT; reference antibody in the run with CHO-expressed antibodies
[4] = target: T1, Human TIGIT expressed on the surface of …; test: flow cytometry on CHOS cells expressing human TIGIT; reference antibody
[5] = target: T1, Human TIGIT expressed on the surface of …; test: flow cytometry competition against 50 nM human CD155-mouse IgG2a Fc on CHOS cells expressing human TIGIT; positive control
[6] = target: T1, Human TIGIT expressed on the surface of …; test: as above; remark: listed apart in the source
[7] = target: T2, Mouse TIGIT-his (ACRO, TIT-M52E6); test: BLI (ForteBio), CHO-expressed antibody loaded on AHQ sensor
Method: The sensor with loaded antibodies was exposed to 100 nM TIGIT-his antigens until to a plateau, and then transferred to an assay buffer for dissociation for at least 2 min to measure the dissociation rate. Kinetic analysis was performed using a 1:1 binding model.

| Binder | EC50, MOA-based assay (luciferase reporter under IL2 promoter), yeast-expressed antibody [1] [nM] | EC50, MOA-based assay (luciferase reporter under IL2 promoter), CHO-expressed antibody [2] [nM] | further results |
| --- | --- | --- | --- |
| ADI-27238 (antibody, human IgG4 S228P, kappa, F234A L235A, V domains shown) VH: QVQLVQSGAEVKKPGASVKVSCKASGYTFTSYYMSWVRQAPGQGLEWMGIINPSGGSTSYAQKFQGRVTMTRDTSTSTVYMELSSLRSEDTAVYYCARARYPSSWPYGMDVWGQGTTVTVSS VL: DIQMTQSPSSLSASVGDRVTITCRASQSINSYLNWYQQKPGKAPKLLIYAASSLQSGVPSRFSGSGSGTDFTLTISSLQPEDFATYYCQQSLLTPFTFGGGTKVEIKR | 68.7 | – | – |
| ADI-30267 (antibody, human IgG4 S228P, kappa, F234A L235A, V domains shown) VH: QVQLVQSGAEVKKPGASVKVSCKASGYTFRSYYMSWVRQAPGQGLEWMGIIDPSGGRTSFAQKFQGRVTMTRDTSTSTVYMELSSLRSEDTAVYYCARARYPESWPYGMDVWGQGTTVTVSS VL: DIQMTQSPSSLSASVGDRVTITCRASQSINSYLNWYQQKPGKAPKLLIYAASSLQSGVPSRFSGSGSGTDFTLTISSLQPEDFATYYCQQSLLTPFTFGGGTKVEIKR | 2.06 | – | – |
| ADI-30268 (antibody, human IgG4 S228P, kappa, F234A L235A, V domains shown) VH: QVQLVQSGAEVKKPGASVKVSCKASGYTFGSYYMGWVRQAPGQGLEWMGIIDPSGGRTSYARKFQGRVTMTRDTSTSTVYMELSSLRSEDTAVYYCARARTPSSWPYGMDVWGQGTTVTVSS VL: DIQMTQSPSSLSASVGDRVTITCRASQSINSYLNWYQQKPGKAPKLLIYAASSLQSGVPSRFSGSGSGTDFTLTISSLQPEDFATYYCQQSLLTPFTFGGGTKVEIKR | 1.22 | 0.506 | – |
| 10A7 (anti-human TIGIT reference antibody from Genentech) (antibody, V domains shown) VH: EVQLVESGGGLTQPGKSLKLSCEASGFTFSSFTMHWVRQSPGKGLEWVAFIRSGSGIVFYADAVRGRFTISRDNAKNLLFLQMNDLKSEDTAMYYCARRPLGHNTFDSWGQGTLVTVSS VL: DIVMTQSPSSLAVSPGEKVTMTCKSSQSLYYSGVKENLLAWYQQKPGQSPKLLIYYASIRFTGVPDRFTGSGSGTDYTLTITSVQAEDMGQYFCQQGINNPLTFGDGTKLEIKR | – | – | EC50, MOA-based assay (luciferase reporter under IL2 promoter) [1]: ~77.8 nM; EC50 [3]: 0.195 nM; EC50 [4]: 0.269 nM; IC50 [5]: 0.741 nM; IC50 [6]: 0.325 nM |
| ADI-30306 (antibody, human IgG4 S228P, kappa, F234A L235A, V domains shown, Intact antibody, expressed in yeast and also in CHO cells (the assay field says which)) VH: QLQLQESGPGLVKPSETLSLTCTVSGGSISSSLYYWGWIRQPPGKGLEWIGSIYYSGSTFYNPSFKSRVTISVDTSKNQFSLKLSSVTAADTAVYYCAREAGRGTTGLLFDYWGQGTLVTVSS VL: DIQMTQSPSTLSASVGDRVTITCRASQSISSWLAWYQQKPGKAPKLLIYKASSLESGVPSRFSGSGSGTEFTLTISSLQPDDFATYYCQQYGILPRTFGGGTKVEIKR | – | – | binding result [7]: no binding (tested: 100 nM TIGIT-his) |
| ADI-30286 (antibody, human IgG4 S228P, kappa, F234A L235A, V domains shown) VH: EVQLLESGGGLVQPGGSLRLSCAASGFTFGPYGMSWVRQAPGKGLEWVSAISGSGASTWYADSVKGRFTISRDNSKNTLYLQMNSLRAEDTAVYYCAKDPGTHYSGYYYIWRYWGQGTLVTVSS VL: EIVMTQSPATLSVSPGERATLSCRASQSVSSNLAWYQQKPGQAPRLLIYSASTRATGIPARFSGSGSGTEFTLTISSLQSEDFAVYYCQQYVPHPPFTFGGGTKVEIKR | – | 0.396 | – |
| ADI-30293 (antibody, human IgG4 S228P, kappa, F234A L235A, V domains shown) VH: EVQLVESGGGLVQPGGSLRLSCAASGFTFSSYSMNWVRQAPGKGLEWVSYISSSGTINYADSVKGRFTISRDNAKNSLYLQMNSLRAEDTAVYYCARHRIADSPSRAFDIWGQGTMVTVSS VL: not shown | 1.56 | 1.62 | – |
| ADI-27243 (antibody, human IgG4 S228P, kappa, F234A L235A, V domains shown) VH: QLQLQESGPGLVKPSETLSLTCTVSGGSISSSRYYWGWIRQPPGKGLEWIGSIYYSGSTYYNPSLKSRVTISVDTSKNQFSLKLSSVTAADTAVYYCARDGLYHTPEYFQHWGQGTLVTVSS VL: EIVLTQSPATLSLSPGERATLSCRASQSVSSYLAWYQQKPGQAPRLLIYDASNRATGIPARFSGSGSGTDFTLTISSLEPEDFAVYYCQQRFAFPYTFGGGTKVEIKR | 297 | – | – |
| ADI-30272 (antibody, human IgG4 S228P, kappa, F234A L235A, V domains shown) VH: QVQLVQSGAEVKKPGASVKVSCKASGYTFTEYYMHWVRQAPGQGLEWMGIISPSAGSTSYAQKFQGRVTMTRDTSTSTVYMELSSLRSEDTAVYYCARDHDIAAAGRLADYWGQGTLVTVSS VL: DIQMTQSPSSVSASVGDRVTITCRASQGISSWLAWYQQKPGKAPKLLISAASSLQSGVPSRFSGSGSGTDFTLTISSLQPEDFATYYCQQAVILPITFGGGTKVEIKR | 1.49 | – | – |
| ADI-30278 (antibody, human IgG4 S228P, kappa, F234A L235A, V domains shown, Intact antibody, expressed in yeast and also in CHO cells (the assay field says which)) VH: QVQLVQSGAEVKKPGASVKVSCKASGYTFTEYYMHWVRQAPGQGLEWMGIISPSAGSTKYAQKFQGRVTMTRDTSTSTVYMELSSLRSEDTAVYYCARDHDIRLAGRLADYWGQGTLVTVSS VL: DIQMTQSPSSVSASVGDRVTITCRASQGISSWLAWYQQKPGKAPKLLISAASSLQSGVPSRFSGSGSGTDFTLTISSLQPEDFATYYCQQAVILPITFGGGTKVEIKR | 0.523 | 0.186 | binding result [7]: no binding (tested: 100 nM TIGIT-his) |
| ADI-27297 (antibody, human IgG4 S228P, kappa, F234A L235A, V domains shown) VH: QVQLVQSGAEVKKPGASVKVSCKASGYTFTSYYMHWVRQAPGQGLEWMGIINPSGGSTSYAQKFQGRVTMTRDTSTSTVYMELSSLRSEDTAVYYCARDHDIAAAGRLADYWGQGTLVTVSS VL: DIQMTQSPSSVSASVGDRVTITCRASQGISSWLAWYQQKPGKAPKLLISAASSLQSGVPSRFSGSGSGTDFTLTISSLQPEDFATYYCQQAVILPITFGGGTKVEIKR | ~25100 | – | – |

Continued, in another order:

| EC50, MOA-based assay (luciferase reporter under IL2 promoter), yeast-expressed antibody [1] [nM] | EC50, MOA-based assay (luciferase reporter under IL2 promoter), CHO-expressed antibody [2] [nM] | Binder | further results |
| --- | --- | --- | --- |
| 1.82 | – | ADI-30311 (antibody, human IgG4 S228P, kappa, F234A L235A, V domains shown) VH: QLQLQESGPGLVKPSETLSLTCTVSGGSIASSVYYWGWIRQPPGKGLEWIGSIYYSGSTWYNPSLKSRVTISVDTSKNQFSLKLSSVTAADTAVYYCAREAGRTGTGLLFDYWGQGTLVTVSS VL: DIQMTQSPSTLSASVGDRVTITCRASQSISSWLAWYQQKPGKAPKLLIYKASSLESGVPSRFSGSGSGTEFTLTISSLQPDDFATYYCQQYGILPRTFGGGTKVEIKR | – |
| – | 0.384 | ADI-30288 (antibody, human IgG4 S228P, kappa, F234A L235A, V domains shown) VH: EVQLLESGGGLVQPGGSLRLSCAASGFTFGPYGMSWVRQAPGKGLEWVSAISGSGASTWHADSVKGRFTISRDNSKNTLYLQMNSLRAEDTAVYYCAKDPGTDSTGYYYIWRYWGQGTLVTVSS VL: EIVMTQSPATLSVSPGERATLSCRASQSVSSNLAWYQQKPGQAPRLLIYSASTRATGIPARFSGSGSGTEFTLTISSLQSEDFAVYYCQQYVPHPPFTFGGGTKVEIKR | – |
| 1.09 | – | ADI-30296 (antibody, human IgG4 S228P, kappa, F234A L235A, V domains shown) VH: EVQLVESGGGLVQPGGSLRLSCAASGFTIGGYSMNWVRQAPGKGLEWVSYISSSSTIHYADSVKGRFTISRDNAKNSLYLQMNSLRAEDTAVYYCARHRIGRSPSRAFDIWGQGTMVTVSS VL: not shown | – |
| 3.33 | 1.27 | ADI-30336 (antibody, human IgG4 S228P, kappa, F234A L235A, V domains shown, Intact antibody, expressed in yeast and also in CHO cells (the assay field says which)) VH: QLQLQESGPGLVKPSETLSLTCTVSGGSISSSRYYWGWIRQPPGKGLEWIGSIYYSGSTYYNPSLKSRVTISVDTSKNQFSLKLSSVTAADTAVYYCARDGLYHTPEYFQHWGQGTLVTVSS VL: EIVLTQSPATLSLSPGERATLSCRASQSVSSYLAWYQQKPGQAPRLLIYDASNRATGIPARFSGSGSGTDFTLTISSLEPEDFAVYYCQQRFAHPYTFGGGTKVEIKR | binding result [7]: no binding (tested: 100 nM TIGIT-his) |
| 0.983 | – | ADI-30302 (antibody, human IgG4 S228P, kappa, F234A L235A, V domains shown) VH: QLQLQESGPGLVKPSETLSLTCTVSGGSIGSSQYYWGWIRQPPGKGLEWIGSIYRSGGTYYNPSLKSRVTISVDTSKNQFSLKLSSVTAADTAVYYCARDGLYHTPEYFQHWGQGTLVTVSS VL: EIVLTQSPATLSLSPGERATLSCRASQSVSSYLAWYQQKPGQAPRLLIYDASNRATGIPARFSGSGSGTDFTLTISSLEPEDFAVYYCQQRFAFPYTFGGGTKVEIKR | – |
